The record followed here is the supplement of paper PMC10567573.

To fix the notation:
B1: RHOBTB1 (parent)
chain: TFGDHHKDRRFAYGRSDVVVLCFS
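Further: lentivirally expressed fusions sorted by FACS into six bins by GFP to DsRed ratio, PSI derived from sequencing read proportions per bin multiplied by bin number.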

In the series the parent is B1. The series is described as follows: protein stability index of a GFP-peptide fusion (GPS, HEK-293T) (PSI 1-6); higher = more stable. The settings on record: c terminus: a fixed tail appended.
With TFGDHHKDRRFAYGRSDVVVECFS, the protein stability index was 2.79. In the case of TFGDHHKDRRFAYGRSDVVVDCFS it was 2.68; in that of TFGDHHKDRRFAYGRSDVVVVCFS, 2.86.

As for TFGDHHKDRRFAYGRSDVVVPCFS, the protein stability index stood at 2.56.

Turning to TFGDHHKDRRFAYGRSDVVVTCFS, the protein stability index was 2.14. In the case of TFGDHHKDRRFAYGRSDVVVFCFS it was 2.07. The value for TFGDHHKDRRFAYGRSDVVVNCFS was 2.44; that for TFGDHHKDRRFAYGRSDVVVMCFS was 2.78; that for TFGDHHKDRRFAYGRSDVVVACFS was 1.62.

For the variant TFGDHHKDRRFAYGRSDVVVRCFS, the protein stability index turned out to be 1.96.

As for TFGDHHKDRRFAYGRSDVVVHCFS, the protein stability index was found to be 1.9. The value for TFGDHHKDRRFAYGRSDVVVWCFS was 2.3; that for TFGDHHKDRRFAYGRSDVVVCCFS was 1.85; that for TFGDHHKDRRFAYGRSDVVVSCFS was 2.15. The value for TFGDHHKDRRFAYGRSDVVVKCFS was 2.34; that for TFGDHHKDRRFAYGRSDVVVICFS was 1.49. In the case of TFGDHHKDRRFAYGRSDVVVGCFS it was 2.23.

Consider TFGDHHKDRRFAYGRSDVVVQCFS, for which the protein stability index came to 2.4. For TFGDHHKDRRFAYGRSDVGVLCFS, the protein stability index worked out at 1.61. The value for TFGDHHKDRRFAYGRSDVWVLCFS was 1.37; that for TFGDHHKDRRFAYGRSDVPVLCFS was 1.69; that for TFGDHHKDRRFAYGRSDVMVLCFS was 2.17. Take TFGDHHKDRRFAYGRSDVYVLCFS: the protein stability index was determined as 2.45. In the case of TFGDHHKDRRFAYGRSDVAVLCFS it was 2.23; in that of TFGDHHKDRRFAYGRSDVQVLCFS, 1.52. The value for TFGDHHKDRRFAYGRSDVHVLCFS was 2; that for TFGDHHKDRRFAYGRSDVTVLCFS was 2.68; that for TFGDHHKDRRFAYGRSDVCVLCFS was 1.26. In the case of TFGDHHKDRRFAYGRSDVSVLCFS it was 1.87; in that of TFGDHHKDRRFAYGRSDVLVLCFS, 2.82; in that of TFGDHHKDRRFAYGRSDVIVLCFS, 2.14.

In the case of TFGDHHKDRRFAYGRSDVNVLCFS, the protein stability index is 2.28.

TFGDHHKDRRFAYGRSDVEVLCFS: the protein stability index was 1.88. In the case of TFGDHHKDRRFAYGRSDVDVLCFS it was 2.93; in that of TFGDHHKDRRFAYGRSDVKVLCFS, 1.92.

As to TFGDHHKDRRFAYGRSDVRVLCFS, the protein stability index is 1.89. In the case of TFGDHHKDRRFAYGRSDVVVLCLS it was 1.42; in that of TFGDHHKDRRFAYGRSDVVVLCDS, 3.1; in that of TFGDHHKDRRFAYGRSDVVVLCHS, 2.6. On to TFGDHHKDRRFAYGRSDVVVLCKS, for which the protein stability index is 2.25. The value for TFGDHHKDRRFAYGRSDVVVLCNS was 3.08; that for TFGDHHKDRRFAYGRSDVVVLCCS was 2.41; that for TFGDHHKDRRFAYGRSDVVVLCES was 3.12.

On to TFGDHHKDRRFAYGRSDVVVLCMS, for which the protein stability index came out at 2.59.

In the case of TFGDHHKDRRFAYGRSDVVVLCGS, the protein stability index was 2.47. For the variant TFGDHHKDRRFAYGRSDVVVLCIS, the protein stability index came out at 1.41. In the case of TFGDHHKDRRFAYGRSDVVVLEFS it was 2.2. Regarding TFGDHHKDRRFAYGRSDVVVLPFS, the protein stability index is 2.21. For the variant TFGDHHKDRRFAYGRSDVVVLWFS, the protein stability index came to 2.73.

Take TFGDHHKDRRFAYGRSDVVVLSFS: the protein stability index came out at 1.94. In the case of TFGDHHKDRRFAYGRSDVVVLFFS, the protein stability index stood at 3.21. The value for TFGDHHKDRRFAYGRSDVVVLLFS was 2.42; that for TFGDHHKDRRFAYGRSDVVVLQFS was 2.2. In the case of TFGDHHKDRRFAYGRSDVVVLVFS it was 3.33; in that of TFGDHHKDRRFAYGRSDVVVLTFS, 1.3. On to TFGDHHKDRRFAYGRSDVVVLMFS, for which the protein stability index came to 2.88. On to TFGDHHKDRRFAYGRSDVVVLGFS, for which the protein stability index is 2.21. The value for TFGDHHKDRRFAYGRSDVVVLNFS was 2.23; that for TFGDHHKDRRFAYGRSDVVVLAFS was 1.72. For the variant TFGDHHKDRRFAYGRSDVVVLKFS, the protein stability index came to 2.17. Turning to TFGDHHKDRRFAYGRSDVVVLYFS, the protein stability index was found to be 1.07.

Turning to TFGDHHKDRRFAYGRSDVVVLDFS, the protein stability index was found to be 2.32. As for TFGDHHKDRRFAYGRSDHVVLCFS, the protein stability index stood at 1.88.

In the case of TFGDHHKDRRFAYGRSDLVVLCFS, the protein stability index was determined as 3.53.

On to TFGDHHKDRRFAYGRSDGVVLCFS, for which the protein stability index stood at 1.68. The value for TFGDHHKDRRFAYGRSDWVVLCFS was 2.21; that for TFGDHHKDRRFAYGRSDNVVLCFS was 1.57. The value for TFGDHHKDRRFAYGRSDTVVLCFS was 1.54; that for TFGDHHKDRRFAYGRSDPVVLCFS was 1.58. In the case of TFGDHHKDRRFAYGRSDRVVLCFS it was 2.92. For the variant TFGDHHKDRRFAYGRSDEVVLCFS, the protein stability index worked out at 2.19. In the case of TFGDHHKDRRFAYGRSDIVVLCFS it was 1.42; in that of TFGDHHKDRRFAYGRSDKVVLCFS, 3.01. The value for TFGDHHKDRRFAYGRSDYVVLCFS was 2.2; that for TFGDHHKDRRFAYGRSDMVVLCFS was 2.06; that for TFGDHHKDRRFAYGRSDSVVLCFS was 1.46. The value for TFGDHHKDRRFAYGRSDQVVLCFS was 1.72; that for TFGDHHKDRRFAYGRSDVVPLCFS was 2.61; that for TFGDHHKDRRFAYGRSDVVELCFS was 2.7.

With TFGDHHKDRRFAYGRSDVVQLCFS, the protein stability index turned out to be 1.7. The value for TFGDHHKDRRFAYGRSDVVALCFS was 3.28; that for TFGDHHKDRRFAYGRSDVVFLCFS was 2.54; that for TFGDHHKDRRFAYGRSDVVTLCFS was 1.68. In the case of TFGDHHKDRRFAYGRSDVVRLCFS it was 1.97.

In the case of TFGDHHKDRRFAYGRSDVVCLCFS, the protein stability index turned out to be 1.51. The value for TFGDHHKDRRFAYGRSDVVDLCFS was 2.62. With TFGDHHKDRRFAYGRSDVVNLCFS, the protein stability index was 2.56. In the case of TFGDHHKDRRFAYGRSDVVKLCFS it was 1.73; in that of TFGDHHKDRRFAYGRSDVVMLCFS, 1.44.

With TFGDHHKDRRFAYGRSDVVGLCFS, the protein stability index was determined as 2.05. In the case of TFGDHHKDRRFAYGRSDVVHLCFS, the protein stability index came to 1.62.

With TFGDHHKDRRFAYGRSDVVSLCFS, the protein stability index stood at 1.95.

Consider TFGDHHKDRRFAYGRSDVVLLCFS, for which the protein stability index came to 2.42. In the case of TFGDHHKDRRFAYGRSDVVYLCFS it was 1.75.
